Test system: EspM (lysate) (Mycobacterium marinum M (ATCC BAA-535))
Assay: DNA pull-down, LC-MS/MS
Conditions: 5' BiotinTEG on both primers; EspM EMSA: 10 mM Tris-HCl pH 8.0, 40 mM KCl, 2.5 mM DTT, 0.25% Tween-20, 0.02 mg/mL salmon sperm DNA (listed as 0.5x binding buffer), ~70 ng probe, 20-25 min …

whiB6 promoter bait (1 kb)
binding signal (fold enrichment over rpoA bait (N5)): > 64
